# Assay results taken from patent publication US20110123544A1 (published 2011).
# T1: Cyno IL-12 (PBMC sup) (cynomolgus monkey)
# T1 chain 1: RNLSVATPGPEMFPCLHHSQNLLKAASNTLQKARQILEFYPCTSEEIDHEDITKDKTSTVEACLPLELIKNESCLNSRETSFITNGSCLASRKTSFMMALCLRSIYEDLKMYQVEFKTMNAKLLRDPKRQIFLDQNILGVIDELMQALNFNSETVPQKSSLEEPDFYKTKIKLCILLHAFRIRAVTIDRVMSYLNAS
# T1 chain 2: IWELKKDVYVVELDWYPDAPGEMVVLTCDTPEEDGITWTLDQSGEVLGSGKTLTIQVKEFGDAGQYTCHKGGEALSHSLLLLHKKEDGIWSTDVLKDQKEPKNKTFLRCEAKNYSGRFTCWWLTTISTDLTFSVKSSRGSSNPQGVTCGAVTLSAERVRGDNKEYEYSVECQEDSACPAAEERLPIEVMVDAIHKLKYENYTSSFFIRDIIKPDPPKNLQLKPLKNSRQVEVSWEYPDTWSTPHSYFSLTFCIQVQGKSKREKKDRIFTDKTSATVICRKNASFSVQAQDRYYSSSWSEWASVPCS
# T2: Baboon IL-12 (PBMC sup) (baboon)
# T2 chain 1: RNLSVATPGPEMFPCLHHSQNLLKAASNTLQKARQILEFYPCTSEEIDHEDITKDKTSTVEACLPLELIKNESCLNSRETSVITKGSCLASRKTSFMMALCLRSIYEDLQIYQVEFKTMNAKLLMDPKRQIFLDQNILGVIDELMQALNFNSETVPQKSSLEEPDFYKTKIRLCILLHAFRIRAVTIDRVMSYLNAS
# T2 chain 2: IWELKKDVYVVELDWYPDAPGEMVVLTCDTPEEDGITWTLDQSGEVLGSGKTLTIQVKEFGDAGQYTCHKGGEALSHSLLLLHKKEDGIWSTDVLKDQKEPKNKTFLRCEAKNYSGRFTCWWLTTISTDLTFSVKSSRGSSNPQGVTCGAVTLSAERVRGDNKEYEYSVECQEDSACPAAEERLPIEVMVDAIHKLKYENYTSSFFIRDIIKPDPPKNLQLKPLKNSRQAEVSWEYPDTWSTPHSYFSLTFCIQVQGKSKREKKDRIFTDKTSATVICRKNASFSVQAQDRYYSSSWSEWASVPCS
# T3: human IL-12 (recombinant human IL-12, p70 heterodimer of p35 and p40) (human, UniProt P29459 23-219; P29460 23-328)
# T3 sequence (looked up) 1: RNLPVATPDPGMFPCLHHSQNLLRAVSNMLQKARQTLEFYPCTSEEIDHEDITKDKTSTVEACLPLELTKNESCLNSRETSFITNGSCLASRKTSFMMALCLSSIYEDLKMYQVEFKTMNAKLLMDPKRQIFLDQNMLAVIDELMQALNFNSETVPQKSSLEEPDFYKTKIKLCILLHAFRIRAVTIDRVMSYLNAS
# T3 sequence (looked up) 2: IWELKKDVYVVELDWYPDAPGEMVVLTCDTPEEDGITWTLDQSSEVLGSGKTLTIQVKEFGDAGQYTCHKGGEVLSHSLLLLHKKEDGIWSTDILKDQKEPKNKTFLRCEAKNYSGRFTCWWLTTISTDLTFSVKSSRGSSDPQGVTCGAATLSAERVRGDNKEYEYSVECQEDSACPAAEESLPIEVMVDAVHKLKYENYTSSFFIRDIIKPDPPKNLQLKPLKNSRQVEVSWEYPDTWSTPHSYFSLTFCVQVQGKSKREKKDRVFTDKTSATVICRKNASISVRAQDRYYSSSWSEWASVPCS
# T4: recombinant human IL-12 (rhIL-12) (human, UniProt P29459 23-219; P29460 23-328)
# T4 construct: disulfide-linked p35/p40 heterodimer (p70); also called rec. human IL12; IL-12 p70
# T4 sequence (looked up) 1: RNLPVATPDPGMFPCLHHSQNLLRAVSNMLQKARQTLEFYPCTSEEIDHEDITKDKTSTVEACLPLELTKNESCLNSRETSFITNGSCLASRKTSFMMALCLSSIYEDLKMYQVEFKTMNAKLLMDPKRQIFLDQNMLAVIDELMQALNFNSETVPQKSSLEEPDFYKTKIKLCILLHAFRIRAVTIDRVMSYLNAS
# T4 sequence (looked up) 2: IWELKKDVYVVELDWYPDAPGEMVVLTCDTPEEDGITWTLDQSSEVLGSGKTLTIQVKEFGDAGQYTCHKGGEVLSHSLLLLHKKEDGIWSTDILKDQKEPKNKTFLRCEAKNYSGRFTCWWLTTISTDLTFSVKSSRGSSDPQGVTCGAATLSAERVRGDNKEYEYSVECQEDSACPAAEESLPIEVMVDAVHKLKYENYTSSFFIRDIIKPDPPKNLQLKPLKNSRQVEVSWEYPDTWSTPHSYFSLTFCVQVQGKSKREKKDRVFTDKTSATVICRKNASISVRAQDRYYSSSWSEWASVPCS
# T5: recombinant human interleukin 12 (p40/p35 heterodimer) (human, UniProt P29460 23-328; P29459 23-219)
# T5 construct: Disulfide-linked heterodimer; also called human IL-12; hIL-12
# T5 sequence (looked up) 1: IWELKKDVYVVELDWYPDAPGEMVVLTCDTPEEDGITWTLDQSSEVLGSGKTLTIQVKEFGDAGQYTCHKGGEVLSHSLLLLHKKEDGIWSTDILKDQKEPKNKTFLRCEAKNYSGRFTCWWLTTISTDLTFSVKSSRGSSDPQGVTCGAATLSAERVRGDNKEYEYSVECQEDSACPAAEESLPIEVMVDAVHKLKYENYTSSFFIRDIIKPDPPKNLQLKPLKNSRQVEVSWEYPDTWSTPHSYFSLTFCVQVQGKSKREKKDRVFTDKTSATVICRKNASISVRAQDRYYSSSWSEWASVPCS
# T5 sequence (looked up) 2: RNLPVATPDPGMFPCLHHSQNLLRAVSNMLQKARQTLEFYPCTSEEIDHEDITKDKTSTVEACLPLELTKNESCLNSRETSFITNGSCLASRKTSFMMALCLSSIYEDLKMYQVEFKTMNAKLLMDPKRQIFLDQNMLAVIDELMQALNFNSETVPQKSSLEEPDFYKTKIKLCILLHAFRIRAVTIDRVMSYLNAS
# B1: J695 (Y61-L94Y-L50Y IgG) (antibody, V domains shown)
# VH: QVQLVESGGGVVQPGRSLRLSCAASGFTFSSYGMHWVRQAPGKGLEWVAFIRYDGSNKYYADSVKGRFTISRDNSKNTLYLQMNSLRAEDTAVYYCKTHGSHDNWGQGTMVTVSS
# VL: QSVLTQPPSVSGAPGQRVTISCSGSRSNIGSNTVKWYQQLPGTAPKLLIYYNDQRPSGVPDRFSGSKSGTSASLAITGLQAEDEADYYCQSYDRYTHPALLFGTGTKVTVLG
# B2: 70-1 IgG1 (antibody, V domains shown)
# VH: HGSHDN
# VL: QSYDSSLRGSRV
# B3: Y19 (scFv, V domains shown)
# VH: QVQLVQSGGGVVQPGRSLRLSCAASGFTFSSYGMHWVRQAPGKGLEWVAFIRYDGSNKYYADSVKGRFTISRDNSKNTLYLQMKSLRAEDTAVYYCKTHGSHDNWGQGTMVTVSS
# VL: SYVLTQPPSVSGTPGQRVTISCSGGRSNIGSNTVKWYQQLPGTAPKLLIYGNDQRPSGVPDRFSGSKSGTSASLAITGVQAEDEADYYCQSYDRGHHPAMSFGTGTKVTVLG
# B4: Y55 (scFv, V domains shown)
# VH: QVQLVQSGGGVVQPGRSLRLSCAASGFTFSSYGMHWVRQAPGKGLEWVAFIRYDGSNKYYADSVKGRFTISRDNSKNTLYLQMKSLRAEDTAVYYCKTHGSHDNWGQGTMVTVSS
# VL: SYVLTQPPSVSGTPGQRVTISCSGGRSNIGSNTVKWYQQLPGTAPKLLIYGNDQRPSGVPDRFSGSKSGTSASLAITGVQAEDEADYYCQSYDRGTHFQMYFGTGTKVTVLG
# B5: D9 (scFv, V domains shown)
# VH: QVQLVQSGGGVVQPGRSLRLSCAASGFTFSSYGMHWVRQAPGKGLEWVAFIRYDGSNKYYADSVKGRFTISRDNSKNTLYLQMKSLRAEDTAVYYCKTHGSHDNWGQGTMVTVSS
# VL: SYVLTQPPSVSGTPGQRVTISCSGGRSNIGSNTVKWYQQLPGTAPKLLIYGNDQRPSGVPDRFSGSKSGTSASLAITGVQAEDEADYYCQSYDRGRLPAQTFGTGTKVTVLG
# B6: Y61 scFv (scFv, V domains shown)
# VH: QVQLVQSGGGVVQPGRSLRLSCAASGFTFSSYGMHWVRQAPGKGLEWVAFIRYDGSNKYYADSVKGRFTISRDNSKNTLYLQMKSLRAEDTAVYYCKTHGSHDNWGQGTMVTVSS
# VL: SYVLTQPPSVSGTPGQRVTISCSGGRSWIGSNTVKWYQQLPGTAPKLLIYGNDQRPSGVPDRFSGSKSGTSASLAITGVQAEDEADYYCQSYDRGTHPALLFGTGTKVTVLG
# notes: Single-chain Fv; also called clone Y61
# B7: Joe 9 wild type (scFv, V domains shown)
# VH: QVQLVQSGGGVVQPGRSLRLSCAASGFTFSSYGMHWVRQAPGKGLEWVAFIRYDGSNKYYADSVKGRFTISRDNSKNTLYLQMKSLRAEDTAVYYCTTSGSYDYWGQGTMVTVSS
# VL: SYVLTQPPSVSGTPGQRVTISCSGGRSNIGSNTVKWYQQLPGTAPKLLIYGNDQRPSGVPDRFSGSKSGTSASLAITGVQAEDEADYYCQSYDSSLRGSRVFGTGTKVTVL
# Tests used:
# [1] = target: T1, Cyno IL-12 (PBMC sup); experiment: cell-based or functional assay
# [2] = target: T2, Baboon IL-12 (PBMC sup); experiment: cell-based or functional assay
# [3] = target: T3, human IL-12 (recombinant human IL-12, …); experiment: cell-based or functional assay
# [4] = target: T4, recombinant human IL-12 (rhIL-12); experiment: RB assay: inhibition of 125I-hIL-12 binding to IL-12 receptors on PHA blasts
# Method: PHA blast cells isolated as described above, were washed once and resuspended in binding buffer to a cell density of 2×10⁷ cells/ml. […] The cell pellet was examined for cell bound radioactivity using a gamma counter. […] Incubations were carried out in duplicate.
# [5] = target: T4, recombinant human IL-12 (rhIL-12); experiment: BIAcore (SPR) off-rate on IL-12 chip
# From the text: The system utilizes the optical properties of SPR to detect alterations in protein concentrations within a dextran biosensor matrix. Proteins are covalently bound to the dextran matrix at known concentrations. […] To determine the off rate (koff), on rate (kₒₙ), association rate (Ka) and dissociation rate (Kd) constants, BIAcore kinetic evaluation software (version 2.1) was used.
# [6] = target: T4, recombinant human IL-12 (rhIL-12); experiment: cell-based or functional assay
# [7] = target: T5, recombinant human interleukin 12 …; experiment: surface plasmon resonance (BIAcore)
# [8] = target: T5, recombinant human interleukin 12 …; experiment: IL-12 receptor binding assay (RBA): inhibition of labelled IL-12 binding to PHA blasts
binder,measurement,setting,value
B1,"IC50 (M), Cyno IL-12 PBMC sup",[1],1e-11 M
same,"IC50 (M), Baboon IL-12 PBMC sup",[2],1.5e-11 M
B2,PHA assay IC50,[3],200 nM
B3,IC50,[4],0.03 nM
same,koff,[5],0.000226 s⁻¹
same,PHA assay IC50,[6],> 10 nM
B4,IC50,[4],0.14 nM
same,koff,[5],0.00106 s⁻¹
same,PHA assay IC50,[6],> 10 nM
B5,IC50,[4],3.5 nM
same,koff,[5],0.000821 s⁻¹
B6,koff,[7],~0.0002 s⁻¹
B7,IC50,[8],1000 nM
